# Data: patent US6825035, “Compositions and methods for modulating expression within smooth muscle cells” (Setagon, Inc.)
# T1: Serum response factor (SRF) (UniProt D3ZHH8 D3ZHH8:1-504)
# T1 sequence: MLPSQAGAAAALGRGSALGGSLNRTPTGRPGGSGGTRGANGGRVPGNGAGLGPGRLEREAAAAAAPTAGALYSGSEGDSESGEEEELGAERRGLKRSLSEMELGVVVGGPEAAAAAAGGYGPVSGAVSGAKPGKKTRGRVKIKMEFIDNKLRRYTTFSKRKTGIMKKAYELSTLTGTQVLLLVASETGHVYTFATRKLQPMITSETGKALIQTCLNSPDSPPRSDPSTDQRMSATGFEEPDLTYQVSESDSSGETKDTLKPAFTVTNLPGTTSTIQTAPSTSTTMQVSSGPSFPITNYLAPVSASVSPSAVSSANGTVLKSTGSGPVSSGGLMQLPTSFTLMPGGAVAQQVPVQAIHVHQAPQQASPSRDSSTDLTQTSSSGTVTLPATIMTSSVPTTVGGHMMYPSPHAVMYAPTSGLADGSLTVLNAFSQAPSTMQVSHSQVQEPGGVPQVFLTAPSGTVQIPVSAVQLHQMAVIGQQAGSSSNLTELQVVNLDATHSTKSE
# B1: Intronic CArG (SM alpha-actin first intron) (dsDNA)
# DNA 1: TTTTACCTAATTAGGAAATG
# DNA 2: CATTTCCTAATTAGGTAAAA
# Molecular target: T1, Serum response factor (SRF)
# Experiment: EMSA; supershift with SRF antibody; binds more avidly than CArG A and B; 10 mM Tris pH 7.5, 100 mM KCl, 50 mM NaCl, 1 mM EDTA, poly(dI-dC), room temp
# Details: protein: synthetic; tags: endogenous SRF in rat aortic SMC nuclear extract, identified by SRF antibody supershift; chain copies: 2; label: 32P end label
# Protocol: 6.1.4 Preparation of Nuclear Extracts, In Vitro Synthesis of SRF, and Electromobility Shift Assays Nuclear extracts were prepared from confluent rat aortic SMCs using the methods of Dignam (Dignam J D, et al., *Nucleic Acids Res.* 1983;11:1475–1489). Culture conditions matched those used for transient transfection assays. Oligonucleotides used in EMSAs were purchased commercially (Operon Technologies) and include the following: CArG A, 5'-[…]-3' (SEQ ID NO:14); CArG B, 5'-[…]-3' (SEQ ID NO:15); Intronic CArG, 5'-[…]-3' (SEQ ID NO:16). Probes were ^32P end labeled and annealed. All probes were purified on a 6% acrylamide gel, eluted in TE, and precipitated twice in ethanol.
# EMSAs were performed with 20 µl of binding reaction that included=30 pg of labeled probe, 5 µg of SMC nuclear extract 0.2 to 0.6 µg of poly (dI-dC) in 1×binding buffer (10 mM TrisHCl (pH 7.5), 100 mM KCI, 50 mM NaCl, 1 mM dithiothreitol, 1 mM EDTA, and 5% glycerol). Following a 30 min incubation at room temperature, the samples were subjected to electrophoresis on a 5% polyacrylamide gel, which had been pre-run at 170V for 1 hr. Electrophoresis was performed at 170V in 0.5×TBE (45 mM Tris Borate, 1 mM EDTA). Gels were dried and exposed to film for 24–72 h at −70 ° C. […]
binder,measurement,value
B1,binding result,binds
